Source: patent publication US20060234208A1, “Novel mechanism for hiv-1 entry into host cells and peptides inhibiting this mechanism” (priority 2002, published 2006)
Where a chain is given by its changes, count along the chain named.

Assays:
recombinant TAT protein = biological target: T1, recombinant TAT protein (Human immunodeficiency virus type 1 group M subtype B, UniProt P69697, G61N/P58A/P59H/S77P/V67A); test: Binding of selected phage to rTAT-coated microwells; parameters: species or system HIV-1; settings: single phage clones; BSA and insertless phage FdTet as negative controls
T1 construct: TAT86 (full-length); purchased The Centralized facility for AIDS Reagents, National Institute for Biological Standards and Controls (donor Immunodiagnostic)
Excerpt: For this assay, we have tested single phage clones for binding rTAT-coated microwells, using an unrelated protein, the Bovine Serum Albumin (BSA), as a negative control. The result is shown in the graph, where ‘Transducing Units’ is a parameter indicating the number of bound phage. Binding of the phage to an insertless phage, FdTet, is shown as a negative control.

[1] = tested on: TAT+/gp120-LV entry into C8166 cells; test: TAT+/gp120-LV entry into C8166 cells after co-culture with U937/TAT cells (Examples IV and V); type: cell-based, HIV-1; settings: 4 h co-culture with U937/TAT cells; without protease inhibitors
Method: (§1) Transduction with HIV-1 -derived lentivirus. Vector stocks were prepared by transient co-transfection of 293T cells with the following combinations of plasmids: pRRL.hPGK.GFP.SIN-18+pCMV.DR8.2+pMD.G (Naldini et al. (1996), supra) (VSV-G-LV) or pEnvHXB (Huang et al., J. Virol. 72 (1998), 8952-8960) (TAT+/gp120-LV); pRRL.hPGK.GFP.SIN-18+pCMV.DR8.74 +pRSV-Rev ((Dull et al. (1998), supra)+pEnvHXB (TAT/gp120 -LV). Vector concentration was determined by HIV-1 p24 Core profile ELISA following the manufacturer's instructions. The entry experiments were conducted on 10^5 cells per well of a 48-well plate in the presence of 8 μg/ml polybrene. The number of GFP-positive cells was analysed by FACS.

HIV-1 Ba-L = test: Infection of PBMC with HIV-1 strain Ba-L (Example VI); type: cell-based; settings: PHA-stimulated PBMCs, 2 h infection; versus 100 μM control peptide; SEQ 4 and 44: 100-50-10 μM, SEQ 127: 1 μM-100-10 nM
Method: This example is illustrated in FIG. 12. […] 4 (CSFINT), 44 (RDKVKK) and the complete gp120 region SEQ ID NO.127 (CSFNITTEIRDKVKK), where the entry experiment is performed with two strains of HIV-1 on peripheral blood cells (PBMCs) derived from healthy donors. In particular, strain III B uses CXCR4 as a co-receptor (X4) and Ba-L uses CCR5 (R5). […] In the graphs the percent inhibition of infection due to the peptides is shown, as compared to infection in the presence of 100 μM of a control peptide. PHA-stimulated PBMCs have been incubated with the peptides and immediately infected for 2 h at 37° C. This incubation time is sufficient to evaluate virus entry, by detecting the presence of early viral transcripts into the cytoplasm of infected cells. The peptide concentrations are as follows: SEQ ID NO.4 and 44: 100-50-10 μM; SEQ ID NO. 127: 1 μM-100-10 nM. In FIG. 12A is represented the effect of the peptides on the basal infection of both viral strains, in FIG. 1 2B the effect of the peptides on the infection following incubation with rTAT7 nM. A peptide-dependent inhibition of the basal infection by both HIV-1 strains is present already in the basal infection, reflecting the presence of TAT in the viral supernatants. In particular, these peptides are more efficient in reducing the basal infection by HIV-1 Ba-L than III B, reaching an inhibition from about 40% (SEQ ID NO. 44 and 127) to 70% (SEQ ID NO. 4). After cell incubation with 7 nM rTAT, the peptides have an enhanced efficacy in inhibiting the infection, and all of them show a dose-response effect, with similar outcomes on infections by both viral strains, confirming that their activity is related to the amount of membrane-bound TAT.
Cell cultures. U937 and C8166 cells were cultured in RPMI -1640 medium supplemented with 10% heat inactivated FCS; Phoenix cells were cultured in DMEM supplemented with 10% FCS; 293T cells were cultured in Iscove's medium supplemented with 10% FCS. […]
Infection with wild type HIV-1. […] Amplified DNA was analyzed by Southern blot hybridization with a ^32P-labeled probe, and quantified by densitometry. […]

[2] = biological target: recombinant TAT86 III B (rTAT) (HIV-1 strain III B) (UniProt P04608)
[3] = biological target: TAT present in the viral supernatant of HIV-1 Ba-L (HIV-1 strain Ba-L); test: cell-based or functional assay
[4] = tested on: TAT+/gp120-LV entry into C8166 cells; test: Effect of rTAT pre-incubation on TAT+/gp120-LV entry into C8166 cells; type: cell-based, HIV-1; settings: C8166 cells pre-incubated with rTAT for 15 min
Method: This effect is reverted if the cells are pre-treated with Heparanase Ill. […] Again, this effect is reverted by pre-treating the cells with Heparanase IlI (FIG. 3B). To investigate the specificity of this effect, we have used lentiviral vectors pseudotyped with a different envelope, i.e. Vescicular Stomatitis Virus-G (VSV-G-LV), to transduce C8166 cells after co-culture with U937/TAT cells for different incubation times, or with the different U937/TAT clones for 2 h. […] Therefore, the increase in cell entry is strictly dependent not only on surface-bound TAT, but also on the presence of gp120. […]
as §1

gp120 = gp120 (Human immunodeficiency virus type 1 group M subtype B, UniProt P03375); settings: GST-fusion TAT HXB2 variants
Excerpt: The following TATHXB2 variants were produced as GST-fusion proteins as described (Mitola, S. et al. Identification of specific molecular structures of human immunodeficiency virus type 1 TAT relevant for its biological effects on vascular endothelial cells. J Virol 74, 344-53 (2000): TAT86 (full-length), TAT72 (product of TAT first exon), TATBasMut (with the mutations R-49,52,53,55,56,57-A), TATCysMut (with the mutations C-22,25,27-A.

[5] = tested on: TAT/gp120-LV entry into C8166 cells; test: Effect of GST-TAT variants on TAT-/gp120-LV entry into C8166 cells; type: cell-based, HIV-1; settings: C8166 cells incubated with 7 μM GST-TAT variant for 15 min; compared to wild-type TAT86
Method: as §1

## CPDRKKKVVMVC [SEQ ID NO.3, phage insert selected from CX10C Phage Display library, tested as phage]
Recombinant TAT protein
  phage binding to rTAT-coated microwells: specifically bind recombinant TAT protein

## CSFNIT [SEQ ID NO. 4]
[1]
  blocking of virus entry at a concentration lower than 100 μM: inefficient
HIV-1 Ba-L
  percent inhibition of basal infection: ~70%

## CSFNITTEIRDKVKK [SEQ ID NO. 127, Synthetic peptide corresponding to the selected region of gp120]
HIV-1 Ba-L
  percent inhibition of basal infection: about 40%

## CTVECYFNCTPTC [SEQ ID NO.2, phage insert selected from CX3CX3CX3C Phage Display library, tested as phage]
Recombinant TAT protein
  phage binding to rTAT-coated microwells: specifically bind recombinant TAT protein

## RDKVKK [SEQ ID NO. 44]
[1]
  blocking of virus entry at a concentration lower than 100 μM: inefficient
HIV-1 Ba-L
  percent inhibition of basal infection: about 40%

## recombinant gp120 III B protein
[2]
  Kd: 8 nM

## soluble peptide SEQ ID NO. 4 (CSFNIT)
[3]
  percent inhibition of basal infection of PBMCs by HIV-1 Ba-L: 70%

## soluble peptide SEQ ID NO. 44 (RDKVKK)
[3]
  percent inhibition of basal infection of PBMCs by HIV-1 Ba-L: 40%

B1: rTAT: recombinant TAT (TAT86 III B) protein (protein)
chain: MIPVDPRLEPWKHPGSQPKTACTNCYCKKCCFHCQVCFITKALGISYGRKKRRQRRRAHQNSQTHQASLSKQPTSQPRGDPTGPKE
[4]
  increase of TAT+/gp120-LV entry: dose-response effect in increasing TAT+/gp120-LV entry

B2: TATBasMut: GST-fusion TAT HXB2 variant with the mutations R-49,52,53,55,56,57-A (protein, UniProt P04608 1-86, looked up, variant R49A R52A R53A R55A R56A R57A)
Protein Tat: B1 chain with I2E, R49A, R52A, R53A, R55A, R56A, R57A
modifications: GST fusion
notes: GST-fusion TAT HXB2 variant with the mutations R-49,52,53,55,56,57-A
gp120
  binding to rgp120-coated microwells: retaining the ability to bind gp120
[5]
  enhancement of TAT/gp120-LV entry into the cells: ineffective in enhancing virus entry

B3: TATCysMut: GST-fusion TAT HXB2 variant with the mutations C-22,25,27-A (protein, UniProt P04608 1-86, looked up, variant C22A C25A C27A)
Protein Tat: B1 chain with I2E, C22A, C25A, C27A
modifications: GST fusion
notes: GST-fusion TAT HXB2 variant with the mutations C-22,25,27-A
[5]
  enhancement of TAT/gp120-LV entry into the cells: could enhance vector entry
